{"source": "paper PMC5234717", "about": "(Journal of Lipid Research, 2016)", "key": {"CCCCCCCCCCCCC/C=C/C=O": {"tested_on": "CCCCCCCCCCCCC/C=C/C=O", "experiment": "purified protein", "conditions": "pH 7.5; 37.0 °C"}, "S1PL2025 [1]": {"target": "T1, S1PL2025 (Burkholderia pseudomallei, UniProt Q63IP4)", "T1 construct": "gene BPSS2025", "T1 sequence (Q63IP4 35-507 limits assumed)": "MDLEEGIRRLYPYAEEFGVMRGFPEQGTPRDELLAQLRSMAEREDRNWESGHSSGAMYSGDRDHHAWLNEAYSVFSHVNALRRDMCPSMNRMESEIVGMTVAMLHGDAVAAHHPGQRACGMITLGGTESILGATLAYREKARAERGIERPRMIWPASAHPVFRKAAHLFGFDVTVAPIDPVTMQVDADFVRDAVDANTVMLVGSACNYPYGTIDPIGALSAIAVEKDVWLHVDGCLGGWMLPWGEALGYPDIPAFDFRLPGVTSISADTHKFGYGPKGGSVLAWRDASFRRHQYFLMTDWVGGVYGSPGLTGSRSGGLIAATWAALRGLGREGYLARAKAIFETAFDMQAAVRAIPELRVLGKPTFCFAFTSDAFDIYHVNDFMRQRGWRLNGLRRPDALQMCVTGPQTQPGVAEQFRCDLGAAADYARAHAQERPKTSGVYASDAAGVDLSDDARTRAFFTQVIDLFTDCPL"}, "S1PL2025 [2]": {"target": "T1, S1PL2025", "remark": "listed apart in the source"}}, "data": [{"compound": "FALDH (Homo sapiens)", "values": [{"measurement": "Km", "setting": "CCCCCCCCCCCCC/C=C/C=O", "result": "19.4 ± 3.2", "unit": "µM"}, {"measurement": "Vmax", "setting": "CCCCCCCCCCCCC/C=C/C=O", "result": 0.315, "unit": "µmol/min/mg"}, {"measurement": "kcat/Km", "setting": "CCCCCCCCCCCCC/C=C/C=O", "result": 11300, "unit": "M⁻¹ s⁻¹"}]}, {"compound": "NCCOP(=O)(O)O", "note": "[PE]", "values": [{"measurement": "UV-vis spectroscopy of PLP", "setting": "S1PL2025 [1]", "result": "UV-vis analysis of the binding of S1P and PE to the S1PL2025 enzyme"}]}, {"compound": "Cc1ncc(COP(=O)(O)O)c(C=O)c1O", "note": "[PLP]", "values": [{"measurement": "UV-vis spectroscopy", "setting": "S1PL2025 [2]", "result": "A similar PLP binding spectrum was observed with S1PL2025"}]}]}
